For three molecules, ECL signal results are on record in patent publication US20120058906A1 (published 2012).

Assay [1] addresses T1, rHuman Notch-1/Fc Chimera, CF (R&D Systems Cat#3647-TK) (human, UniProt P46531 19-526).
T1 construct: Bought Fc chimera; Fc part of the bought chimera not given
Description: MSD ECL titration, Fab 9.3 nM, blank 287.

The target in assay [2] is T2, rHuman CD44/Fc Chimera, CF (R&D Systems Cat#3660-CD) (human, UniProt P16070 21-220).
T2 construct: Bought Fc chimera; Fc part of the bought chimera not given
Description: MSD ECL titration, Fab 9.3 nM, blank 287.

Assay [3] concerns the target T3, rHuman IGF-1 sR (insulin-like growth factor-1 soluble receptor), CF (R&D Systems Cat#391-GR) (human, UniProt P08069 31-932).
T3 construct: Bought soluble receptor; also called IGF-R1
Description: MSD ECL titration, Fab 9.3 nM, blank 287.

The target in assay [4] is T4, rHuman P-Cadherin/Fc Chimera, CF (R&D Systems Cat#861-PC) (human, UniProt P22223 108-654).
T4 construct: Bought Fc chimera; Fc part of the bought chimera not given
Description: MSD ECL titration, Fab 9.3 nM, blank 287.

The target in assay [5] is T5, rHuman Erythropoietin R/Fc Chimera, CF (R&D Systems Cat#963-ER) (human, UniProt P19235 25-250).
T5 construct: Bought Fc chimera; also called EPO R/Fc; EPOR; Fc part of the bought chimera not given
T5 sequence: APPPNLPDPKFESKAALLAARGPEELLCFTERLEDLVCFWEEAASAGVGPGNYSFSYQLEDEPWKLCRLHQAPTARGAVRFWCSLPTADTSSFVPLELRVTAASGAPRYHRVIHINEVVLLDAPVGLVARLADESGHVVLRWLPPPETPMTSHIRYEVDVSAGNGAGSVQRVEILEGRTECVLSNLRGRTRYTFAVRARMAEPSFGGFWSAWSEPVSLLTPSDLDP
Description: MSD ECL titration, Fab 9.3 nM, blank 287.

In assay [6] the target is T6, Recombinant Human DLL4 (R&D Systems Cat#1506-D4/CF) (human, UniProt Q9NR61 27-524).
T6 construct: Bought recombinant protein; also called rHuman DLL4; delta-like protein 4
Description: MSD ECL titration, Fab 9.3 nM, blank 287.

Assay [7] concerns the target T7, rHuman ErbB2/Fc Chimera, CF (R&D Systems Cat#1129-ER) (human, UniProt P04626 23-652).
T7 construct: Bought Fc chimera; also called HER2/neu; Fc part of the bought chimera not given
Description: MSD ECL titration, Fab 9.3 nM, blank 287.

Assay [8] concerns the target T8, rHuman EGF R/Fc Chimera, CF (R&D Systems Cat#344-ER) (human, UniProt P00533 25-645).
T8 construct: Bought Fc chimera; Fc part of the bought chimera not given
Description: MSD ECL titration, Fab 9.3 nM, blank 287.

Assay [9] has as its target T9, rHuman HGF R/c-MET/Fc Chimera, CF (R&D Systems Cat#358-MT/CF) (human, UniProt P08581 25-932).
T9 construct: Bought Fc chimera; also called HGF R/Fc; Fc part of the bought chimera not given
Description: MSD ECL titration, Fab 9.3 nM, blank 287.

Assay [10] deals with T10, rHuman ErbB2/Fc Chimera, CF (R&D Systems Cat#1129-ER) (human, UniProt P04626 23-652).
T10 construct: Bought Fc chimera; also called HER2/neu; not shown: Fc of the bought chimera
Description: ECL (MSD multi-spot), antigen on plate, Fab 10 nM.

Assay [11] deals with T11, rHuman Notch-1/Fc Chimera, CF (R&D Systems Cat#3647-TK) (human, UniProt P46531 19-526).
T11 construct: Bought Fc chimera; not shown: Fc of the bought chimera
Description: ECL (MSD multi-spot), antigen on plate, Fab 10 nM.

Assay [12] deals with T12, rHuman CD44/Fc Chimera, CF (R&D Systems Cat#3660-CD) (human, UniProt P16070 21-220).
T12 construct: Bought Fc chimera; Fc part of the bought chimera not given
Description: ECL (MSD Multi-Spot) binding, antigen spotted on plate; Fab 500 nM.

Assay [13] concerns the target T13, rHuman IGF-1 sR, CF (R&D Systems Cat#391-GR) (human, UniProt P08069 31-932).
T13 construct: Bought soluble receptor; also called insulin-like growth factor-1 soluble receptor; IGF-R1
Described as above.

The target in assay [14] is T14, rHuman P-Cadherin/Fc Chimera, CF (R&D Systems Cat#861-PC) (human, UniProt P22223 108-654).
T14 construct: Bought Fc chimera; Fc part of the bought chimera not given
The assay is described as above.

Assay [15] addresses T15, rHuman Erythropoietin R/Fc Chimera, CF (R&D Systems Cat#963-ER) (human, UniProt P19235 25-250).
T15 construct: Bought Fc chimera; also called EPO R/Fc; erythropoietin receptor; Fc part of the bought chimera not given
T15 sequence: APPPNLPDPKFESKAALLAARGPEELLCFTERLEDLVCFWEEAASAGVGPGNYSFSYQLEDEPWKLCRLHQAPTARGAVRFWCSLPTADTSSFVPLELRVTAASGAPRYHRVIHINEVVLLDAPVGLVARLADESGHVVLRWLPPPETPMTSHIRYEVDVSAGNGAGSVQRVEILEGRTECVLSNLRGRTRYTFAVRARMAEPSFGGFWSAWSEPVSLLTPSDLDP
Described as above.

Assay [16] deals with T16, Recombinant Human DLL4 (R&D Systems Cat#1506-D4/CF) (human, UniProt Q9NR61 27-524).
T16 construct: Bought recombinant protein; also called delta-like protein 4
The assay is described as above.

Assay [17] deals with T17, rHuman EGF R/Fc Chimera, CF (R&D Systems Cat#344-ER) (human, UniProt P00533 25-645).
T17 construct: Bought Fc chimera; also called epidermal growth factor receptor; Fc part of the bought chimera not given
The description is as above.

The target of assay [18] is T18, rHuman HGF R/c-MET/Fc Chimera, CF (R&D Systems Cat#358-MT/CF) (human, UniProt P08581 25-932).
T18 construct: Bought Fc chimera; also called HGF R/Fc; hepatocyte growth factor receptor; Fc part of the bought chimera not given
The assay is described as above.

For assay [19], the target named is T19, rHuman Notch-1/Fc Chimera, CF (R&D Systems Cat#3647-TK) (human, UniProt P46531 19-526).
T19 construct: Bought Fc chimera; Fc part of the bought chimera not given
The assay is described as above.
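Further: blank spot per well as comparator with Hit at signal to blank ratio of 4 or more.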

B1: Fab VH1-46_IGHD6-6*01_IGHJ1*01 & L6_IGKJ1*01 (Fab, V domains shown)
VH: QVQLVQSGAEVKKPGASVKVSCKASGYTFTSYYMHWVRQAPGQGLEWMGIINPSGGSTSYAQKFQGRVTMTRDTSTSTVYMELSSLRSEDTAVYYCAREEYSSSSAEYFQHWGQGTLVTVSS
VL: not shown
notes: Expressed in E. coli as Fab: heavy chain with CH1 plus Flag and His tags from Plasmid A, kappa light chain constant region from Plasmid C; also called Fab No. 1
For B1, the ECL signal in assay [1] is 492; in assay [2] it was 396; in assay [3] it was 315; in assay [4], 452; in assay [5], 306; in [6], 13200. For the same molecule, the ECL signal in assay [7] worked out at 354; in assay [8] it was 424; in assay [9], 324.

B2: Fab VH1-46_IGHD6-6*01_IGHJ1*01_S102A_S103P_S104F & L6_IGKJ1*01_S28P (Fab, V domains shown)
VH: QVQLVQSGAEVKKPGASVKVSCKASGYTFTSYYMHWVRQAPGQGLEWMGIINPSGGSTSYAQKFQGRVTMTRDTSTSTVYMELSSLRSEDTAVYYCAREEYAPFSAEYFQHWGQGTLVTVSS
VL: EIVLTQSPATLSLSPGERATLSCRASQPVSSYLAWYQQKPGQAPRLLIYDASNRATGIPARFSGSGSGTDFTLTISSLEPEDFAVYYCQQRSNWPPWTFGQGTKVEIKR
notes: Fab
Take B2: the ECL signal in [10] was found to be 136 ECL signal; in assay [11] it was 280 ECL signal.

B3: Fab VH1-46_IGHD6-6*01_IGHJ1*01_S102A_S103P_S104F_H111Y & L6_IGKJ1*01 (Fab, V domains shown)
VH: QVQLVQSGAEVKKPGASVKVSCKASGYTFTSYYMHWVRQAPGQGLEWMGIINPSGGSTSYAQKFQGRVTMTRDTSTSTVYMELSSLRSEDTAVYYCAREEYAPFSAEYFQYWGQGTLVTVSS
VL: not shown
notes: Fab made in E. coli; The heavy chain also carries the CH1 with Flag and His tags of Plasmid A, and the light chain the kappa constant region of Plasmid C
Regarding B3, the ECL signal in assay [12] stood at 664; in assay [13] it was 592; in [14], 939; in [15], 1210; in [16] it was 93100; in assay [17] it was 898. Moreover, the ECL signal in assay [18] stood at 523; in [19] it was 644.
